Key:
[1] = target: T1, N-terminal tagged His10-PirA^vp (Vibrio parahaemolyticus); assay: ITC; iTC200; 1100 uM PirB^vp in the syringe injected into 110 uM PirA^vp in the cell, 19 injections of 2 uL, 25 °C; 30 mM Tris pH 8.0, 100 mM NaCl, 5% glycerol, 1 mM DTT; triplicate; conditions: both partners purified
T1 chain: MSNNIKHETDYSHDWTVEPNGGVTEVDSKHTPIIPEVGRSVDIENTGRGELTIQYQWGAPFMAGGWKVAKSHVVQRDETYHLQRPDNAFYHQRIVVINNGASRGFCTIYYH

[2] = target: T1, N-terminal tagged His10-PirA^vp; assay: SDS-PAGE densitometry of the complex collected from gel filtration; complex fractions eluted at 12.5 to 13 mL, serially diluted, SDS-PAGE; bands quantified with Image J against standard curves of PirA^vp and PirB^vp; conditions: both partners purified

B1: C-terminal tagged His6-PirB^vp (natural protein)
chain: MTNEYVVTMSSLTEFNPNNARKSYLFDNYEVDPNYAFKAMVSFGLSNIPYAGGFLSTLWNIFWPNTPNEPDIENIWEQLRDRIQDLVDESIIDAINGILDSKIKETRDKIQDINETIENFGYAAAKDDYIGLVTHYLIGLEENFKRELDGDEWLGYAILPLLATTVSLQITYMACGLDYKDEFGFTDSDVHKLTRNIDKLYDDVSSYITELAAWADNDSYNNANQDNVYDEVMGARSWCTVHGFEHMLIWQKIKELKKVDVFVHSNLISYSPAVGFPSGNFNYIATGTEDEIPQPLKPNMFGERRNRIVKIESWNSIEIHYYNRVGRLKLTYENGEVVELGKAHKYDEHYQSIELNGAYIKYVDVIANGPEAIDRIVFHFSDDRTFVVGENSGKPSVRLQLEGHFICGMLADQEGSDKVAAFSVAYELFHPDEFGTEK
For B1, which Kd [1] is on record?
The Kd was 7.33 ± 1.2 µM.

What about the dH [1] of the same binder?
Its dH is -25.7 ± 1.42 kcal/mol.

What about the “stoichiometry N” value [1] of the same binder?
Its value is 0.74 ± 0.01.

And the “stoichiometry N” value [2]?
Its value is 1.1 PirA^vp per PirB^vp.
